Data taken from the supplement of paper PMC7877785.
± gives the uncertainty stated by the source.

Experiment: self-splicing fitness, log relative to wild type (ln ratio); higher = more splicing; Tetrahymena group I intron in knt gene, E. coli kanamycin selection, DiMSum; sequences stand for … in CUCUCU…GGAGGGAAAAGUUAUCAGGCAUGCACCUGGUAGCUAGUCUUUAAACCAAUAGAUUGCAUCGGUUUAAAAGGCAAGACCGUCAAAUUGCGGGAAAGGGGUCAACAGCCGUUCAGUACCAAGUCUCAGGGGAAACUUUGAGAUGGCCUUGCAAAGGGUAUGGUAAUAAGCUGACGGACAUGGUCCUAACCACGCAGCCAAGUCCUAAGUCAACAGAUCUUCUGUUGAUAUGGAUGCAGUUCACAGACUAAAUGUCGGUCGGGGAAGAUGUAUUCUUCUCAUAAGAUAUAGUCGGACCUCUCCUUAAUGGGAGCUAGCGGAUGAAGUGAUGCAACACUGGAGCCGCUGGGAACUAAUUUGUAUGCGAAAGUAUAUUGAUUAGUUUUGGAGUACUCGUGGUCG
How it was run: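 Six replicate transformations of E. coli BL21(DE3) with a pET-22b(+) library were grown overnight at 37°C or 30°C. The library randomised all eight P1ex-region intron nucleotides, the intron lying in the knt kanamycin-resistance gene, and plates were LB agar with or without 25 μg/mL kanamycin plus 100 μg/mL carbenicillin, 50 μM IPTG and 0.2% rhamnose. Pooled colonies were amplicon-sequenced on an Illumina HiSeq 2500, and fitness is the DiMSum error-weighted combination of wild-type-normalised replicate fold changes, kanamycin versus none.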

Sequence | self-splicing fitness (ln) (30 °C) | self-splicing fitness (ln) (37 °C)
GAACAGCAAUAUUACGGCGA | -1.38 ± 0.09 | -0.318 ± 0.077
GAACAGCAAUAUUACGGUUG | -2 ± 0.1 | -0.692 ± 0.12
GAACAGCAAUAUUACGUAAA | -0.541 ± 0.061 | 0.234 ± 0.075
GAACAGCAAUAUUACGUCUA | -0.567 ± 0.074 | -0.586 ± 0.073
GAACAGCAAUAUUACGUGUG | -1.35 ± 0.054 | -0.967 ± 0.069
GAAGAGCAAUAUUACGAACC | -1.82 ± 0.25 | -1.13 ± 0.29
GAAGAGCAAUAUUACGAAGU | -3.98 ± 0.42 | -2.85 ± 0.3
GAAGAGCAAUAUUACGACAA |  | -2.02 ± 0.38
GAAGAGCAAUAUUACGAUAA | -3.7 ± 0.29 | -2.11 ± 0.22
GAAGAGCAAUAUUACGAUAG | -3.04 ± 0.24 | -2.14 ± 0.29
GAAGAGCAAUAUUACGAUGC | -2.13 ± 0.16 | -1.9 ± 0.18
GAAGAGCAAUAUUACGCACU | -2.39 ± 0.17 | -1.33 ± 0.18
GAAGAGCAAUAUUACGCAGU | -2.47 ± 0.2 | -2.38 ± 0.23
GAAGAGCAAUAUUACGCGCA | -1.11 ± 0.2 | -1.35 ± 0.14
GAAGAGCAAUAUUACGCUAC | -3.19 ± 0.25 | 
GAAGAGCAAUAUUACGCUGA |  | -2.3 ± 0.28
GAAGAGCAAUAUUACGGAAG | -2.81 ± 0.2 | -2.59 ± 0.44
GAAGAGCAAUAUUACGGAUC | -1.1 ± 0.071 | -1.1 ± 0.09
GAAGAGCAAUAUUACGGGUA | -2.6 ± 0.19 | -1.89 ± 0.15
GAAGAGCAAUAUUACGUAAC | -1.31 ± 0.12 | -1.54 ± 0.21
GAAGAGCAAUAUUACGUCCA | -3.13 ± 0.4 | 
GAAGAGCAAUAUUACGUGAA | -2.94 ± 0.15 | -2.03 ± 0.17
GAAGAGCAAUAUUACGUGGU | -4.07 ± 0.23 | -3.01 ± 0.32
GAAGAGCAAUAUUACGUUGG | -3.53 ± 0.18 | -2.34 ± 0.16
GAAUAGCAAUAUUACGAAAU | -1.3 ± 0.1 | -1.6 ± 0.13
GAAUAGCAAUAUUACGACAC | -0.0325 ± 0.3 | -0.0524 ± 0.23

Sequence | self-splicing fitness (ln) (30 °C) | self-splicing fitness (ln) (37 °C)
GAAUAGCAAUAUUACGACAU | -0.389 ± 0.012 | 0.00512 ± 0.033
GAAUAGCAAUAUUACGACGC | 0.293 ± 0.13 | -0.0831 ± 0.16
GAAUAGCAAUAUUACGAGAC |  | -0.147 ± 0.18
GAAUAGCAAUAUUACGAGGC | -3.58 ± 0.38 | -2.2 ± 0.3
GAAUAGCAAUAUUACGAGGG | -3.39 ± 0.18 | -3.25 ± 0.19
GAAUAGCAAUAUUACGAUAC | -1.47 ± 0.15 | -0.123 ± 0.17
GAAUAGCAAUAUUACGAUGA | -1.2 ± 0.083 | -0.62 ± 0.093
GAAUAGCAAUAUUACGAUUG | -1.4 ± 0.1 | -0.331 ± 0.13
GAAUAGCAAUAUUACGCAGA | -2.53 ± 0.16 | -1.34 ± 0.14
GAAUAGCAAUAUUACGCCAU |  | -1.49 ± 0.36
GAAUAGCAAUAUUACGCGCU | -0.615 ± 0.13 | -0.0137 ± 0.15
GAAUAGCAAUAUUACGGAGA | -3.11 ± 0.47 | -2.56 ± 0.45
GAAUAGCAAUAUUACGGAGU | -2.02 ± 0.18 | -2.03 ± 0.23
GAAUAGCAAUAUUACGGCUU | 0.268 ± 0.075 | 0.303 ± 0.11
GAAUAGCAAUAUUACGGGAU | -2.06 ± 0.13 | -2.06 ± 0.16
GAAUAGCAAUAUUACGGUCC | -2.78 ± 0.24 | -0.862 ± 0.25
GAAUAGCAAUAUUACGGUGG | -3.06 ± 0.24 | -1.08 ± 0.12
GAAUAGCAAUAUUACGUAGU | -2.61 ± 0.12 | -1.99 ± 0.18
GAAUAGCAAUAUUACGUCCC | -1.33 ± 0.12 | -0.165 ± 0.17
GAAUAGCAAUAUUACGUCGU | -2 ± 0.12 | -1.35 ± 0.14
GACAAGCAAUAUUACGACUC | 0.206 ± 0.1 | 0.387 ± 0.12
GACAAGCAAUAUUACGAGAG | -3.18 ± 0.17 | -2.96 ± 0.21
GACAAGCAAUAUUACGAGCU | -1.28 ± 0.08 | -0.288 ± 0.11
GACAAGCAAUAUUACGAUGC | -1.44 ± 0.091 | -0.732 ± 0.11
GACAAGCAAUAUUACGCAGU | -3.47 ± 0.35 | -1.85 ± 0.22
GACAAGCAAUAUUACGCAUC | -4.33 ± 0.28 | -3.91 ± 0.42

Sequence | self-splicing fitness (ln) (30 °C) | self-splicing fitness (ln) (37 °C)
GACAAGCAAUAUUACGCGAA | -2.8 ± 0.16 | -1.88 ± 0.14
GACAAGCAAUAUUACGCGGU | -3.2 ± 0.24 | -2.48 ± 0.24
GACAAGCAAUAUUACGCGUC | -4.02 ± 0.22 | -3.45 ± 0.39
GACAAGCAAUAUUACGCUCC | -3.8 ± 0.24 | -2.56 ± 0.27
GACAAGCAAUAUUACGGAAU | -1.92 ± 0.11 | -1.35 ± 0.12
GACAAGCAAUAUUACGGCCC | -0.324 ± 0.16 | 0.203 ± 0.28
GACAAGCAAUAUUACGGCUU | -0.995 ± 0.068 | -0.505 ± 0.1
GACAAGCAAUAUUACGGGCU | -1.63 ± 0.087 | -1.39 ± 0.097
GACAAGCAAUAUUACGGGGA | -3.05 ± 0.12 | -1.75 ± 0.1
GACAAGCAAUAUUACGUACU | -1.16 ± 0.059 | -0.397 ± 0.079
GACAAGCAAUAUUACGUCGC | -3.86 ± 0.25 | -2.1 ± 0.21
GACAAGCAAUAUUACGUCUA | -2.01 ± 0.079 | -1.04 ± 0.082
GACAAGCAAUAUUACGUGCA | -0.912 ± 0.06 | 0.0273 ± 0.077
GACAAGCAAUAUUACGUGCU | -2.93 ± 0.082 | -1.82 ± 0.078
GACAAGCAAUAUUACGUUAC | -3.32 ± 0.15 | -2.36 ± 0.17
GACAAGCAAUAUUACGUUCC | -3.15 ± 0.24 | -2.8 ± 0.31
GACCAGCAAUAUUACGAAGC | -0.849 ± 0.062 | -0.511 ± 0.093
GACCAGCAAUAUUACGACAC | -0.384 ± 0.065 | -0.0663 ± 0.085
GACCAGCAAUAUUACGACAG | -3.85 ± 0.18 | -2.22 ± 0.18
GACCAGCAAUAUUACGACGG | -2.67 ± 0.15 | -1.99 ± 0.18
GACCAGCAAUAUUACGACUA | -0.158 ± 0.056 | -0.0882 ± 0.062
GACCAGCAAUAUUACGAGUC | -3.82 ± 0.23 | -2.06 ± 0.18
GACCAGCAAUAUUACGAGUG | -0.669 ± 0.055 | -0.33 ± 0.084
GACCAGCAAUAUUACGAUAC | -0.984 ± 0.056 | -0.634 ± 0.066
GACCAGCAAUAUUACGCAUG | -1.2 ± 0.073 | -1.65 ± 0.09
